According to IntAct's records for PubMed 31515488:

B1: Iron-sulfur cluster co-chaperone protein HscB (Homo sapiens), Q8IWL3 (parent)
chain: MWRGRAGALLRVWGFWPTGVPRRRPLSCDAASQAGSNYPRCWNCGGPWGPGREDRFFCPQCRALQAPDPTRDYFSLMDCNRSFRVDTAKLQHRYQQLQRLVHPDFFSQRSQTEKDFSEKHSTLVNDAYKTLLAPLSRGLYLLKLHGIEIPERTDYEMDRQFLIEIMEINEKLAEAESEAAMKEIESIVKAKQKEFTDNVSSAFEQDDFEEAKEILTKMRYFSNIEEKIKLKKIPL
B2: Protein FAM9B (Homo sapiens), Q8IZU0 (parent)
chain: MAAWGKKHAGKDPVRDECEERNRFTETREEDVTDEHGEREPFAETDEHTGANTKKPEDTAEDLTAKRKRMKMDKTCSKTKNKSKHALRKKQLKRQKRDYIHSLKLLNVLEEYITDEQKEEEEEEGEEEELIRIFQEQQKKWQQYRSVRRERLKEMKLLRDQFVKALEDFEDLCDRVFSDEDSELDN
partner: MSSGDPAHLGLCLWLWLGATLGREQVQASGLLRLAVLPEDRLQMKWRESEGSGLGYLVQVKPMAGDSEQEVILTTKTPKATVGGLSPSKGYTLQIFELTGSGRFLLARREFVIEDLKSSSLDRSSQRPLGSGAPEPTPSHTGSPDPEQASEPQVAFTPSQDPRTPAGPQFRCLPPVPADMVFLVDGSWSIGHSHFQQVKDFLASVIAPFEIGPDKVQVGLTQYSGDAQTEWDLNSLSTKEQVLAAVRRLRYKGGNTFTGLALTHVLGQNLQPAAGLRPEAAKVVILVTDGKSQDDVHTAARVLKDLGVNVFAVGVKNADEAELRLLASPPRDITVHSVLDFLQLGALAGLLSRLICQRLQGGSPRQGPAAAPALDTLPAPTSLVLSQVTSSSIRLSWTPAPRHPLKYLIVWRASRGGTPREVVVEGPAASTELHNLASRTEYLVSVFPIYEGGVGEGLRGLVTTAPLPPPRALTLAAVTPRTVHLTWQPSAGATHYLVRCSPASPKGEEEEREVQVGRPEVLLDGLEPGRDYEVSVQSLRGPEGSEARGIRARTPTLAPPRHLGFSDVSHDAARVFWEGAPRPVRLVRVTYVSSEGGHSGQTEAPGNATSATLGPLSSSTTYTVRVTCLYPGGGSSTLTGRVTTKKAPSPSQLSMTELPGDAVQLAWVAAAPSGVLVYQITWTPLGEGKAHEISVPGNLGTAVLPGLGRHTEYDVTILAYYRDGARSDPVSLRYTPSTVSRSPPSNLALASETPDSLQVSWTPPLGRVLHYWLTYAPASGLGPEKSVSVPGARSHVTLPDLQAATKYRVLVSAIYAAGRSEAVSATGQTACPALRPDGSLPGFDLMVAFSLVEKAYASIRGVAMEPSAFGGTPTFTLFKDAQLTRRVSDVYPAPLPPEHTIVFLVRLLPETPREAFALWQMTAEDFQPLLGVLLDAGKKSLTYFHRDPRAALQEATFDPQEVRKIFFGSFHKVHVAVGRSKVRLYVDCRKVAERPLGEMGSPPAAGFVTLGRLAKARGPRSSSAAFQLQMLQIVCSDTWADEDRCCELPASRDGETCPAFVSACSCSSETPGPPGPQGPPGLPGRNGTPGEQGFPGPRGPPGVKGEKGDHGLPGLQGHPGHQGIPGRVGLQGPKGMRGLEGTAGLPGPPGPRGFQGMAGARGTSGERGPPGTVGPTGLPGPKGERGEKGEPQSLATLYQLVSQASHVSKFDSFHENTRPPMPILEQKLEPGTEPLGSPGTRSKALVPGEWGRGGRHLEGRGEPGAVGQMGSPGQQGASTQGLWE
B3: Protein NOXP20 (Homo sapiens), Q8IWE2 (parent)
chain: MSDDAGDTLATGDKAEVTEMPNSDSLPEDAEVHCDSAAVSHEPTPADPRGEGHENAAVQGAGAAAIGPPVQPQDANALEPPLNGDVTEDTLAECIDSVSLEAEPRSEIPLQEQNYLAVDSPPSGGGWAGWGSWGKSLLSSASATVGHGLTAVKEKAGATLRIHGVNSGSSEGAQPNTENGVPEITDAATDQGPAESPPTSPSSASRGMLSAITNVVQNTGKSVLTGGLDALEFIGKKTMNVLAESDPGFKRTKTLMERTVSLSQMLREAKEKEKQRLAQQLTMERTAHYGMLFDEYQGLSHLEALEILSNESESKVQSFLASLDGEKLELLKNDLISIKDIFAAKELENEENQEEQGLEEKGEEFARMLTELLFELHVAATPDKLNKAMKRAHDWVEEDQTVVSVDVAKVSEEETKKEEKEEKSQDPQEDKKEEKKTKTIEEVYMSSIESLAEVTARCIEQLHKVAELILHGQEEEKPAQDQAKVLIKLTTAMCNEVASLSKKFTNSLTTVGSNKKAEVLNPMISSVLLEGCNSTTYIQDAFQLLLPVLQVSHIQTSCLKAQP
B4: A-kinase anchor protein 17A (Homo sapiens), Q02040 (parent)
chain: MAAATIVHDTSEAVELCPAYGLYLKPITKMTISVALPQLKQPGKSISNWEVMERLKGMVQNHQFSTLRISKSTMDFIRFEGEVENKSLVKSFLACLDGKTIKLSGFSDILKVRAAEFKIDFPTRHDWDSFFRDAKDMNETLPGERPDTIHLEGLPCKWFALKESGSEKPSEDVLVKVFEKFGEIRNVDIPMLDPYREEMTGRNFHTFSFGGHLNFEAYVQYREYMGFIQAMSALRGMKLMYKGEDGKAVACNIKVSFDSTKHLSDASIKKRQLERQKLQELEQQREEQKRREKEAEERQRAEERKQKELEELERERKREEKLRKREQKQRDRELRRNQKKLEKLQAEEQKQLQEKIKLEERKLLLAQRNLQSIRLIAELLSRAKAVKLREQEQKEEKLRLQQQEERRRLQEAELRRVEEEKERALGLQRKERELRERLLSILLSKKPDDSHTHDELGVAHADLLQPVLDILQTVSSGCVSATTLHPLGGQPPAGAPKESPAHPEADGAPKSVNGSVAEEAPCKEVQSSCRVVPEDGSPEKRCPGGVLSCIPDNNQQPKGIPACEQNVSRKDTRSEQDKCNREPSKGRGRATGDGLADRHKRERSRARRASSREDGRPRKERRPHKKHAYKDDSPRRRSTSPDHTRSRRSHSKDRHRRERSRERRGSASRKHSRHRRRSERSRSRSPSRHRSTWNR
B5: BICD family-like cargo adapter 2 (Homo sapiens), A1A5D9 (parent)
chain: MSSPDGPSFPSGPLSGGASPSGDEGFFPFVLERRDSFLGGGPGPEEPEDLALQLQQKEKDLLLAAELGKMLLERNEELRRQLETLSAQHLEREERLQQENHELRRGLAARGAEWEARAVELEGDVEALRAQLGEQRSEQQDSGRERARALSELSEQNLRLSQQLAQASQTEQELQRELDALRGQCQAQALAGAELRTRLESLQGENQMLQSRRQDLEAQIRGLREEVEKGEGRLQTTHEELLLLRRERREHSLELERARSEAGEALSALRRLQRRVSELEEESRLQDADVSAASLQSELAHSLDDGDQGQGADAPGDTPTTRSPKTRKASSPQPSPPEEILEPPKKRTSLSPAEILEEKEVEVAKLQDEISLQQAELQSLREELQRQKELRAQEDPGEALHSALSDRDEAVNKALELSLQLNRVSLERDSLSRELLRAIRQKVALTQELEAWQDDMQVVIGQQLRSQRQKELSASASSSTPRRAAPRFSLRLGPGPAGGFLSNLFRRT

Variants of: B1
Conditions: with atrap_human AGTRAP

Variant	effect of a mutation on the interaction
MWRGRAGALLRVWGFWPTGVPRRRPLSCDAASQAGSNYPRCWNCGGPWGPGREDRFFCPQCRALQAPDPTRDYFSLMDCNRSFRVDTAKLQHRYQQLQRLVHPDFFSQRSQTEKDFSEKHSTLVNDAYKTLLAPLSRGLYLLKLHGIEIPERTDYEMDRQFLMEIMEINEKLAEAESEAAMKEIESIVKAKQKEFTDNVSSAFEQDDFEEAKEILTKMRYFSNIEEKIKLKKIPL [I163M]	disrupting interaction strength

Variants of: B2
Conditions: with coka1_human COL20A1, Q9P218

Variant	effect of a mutation on the interaction
R23H	with no effect

Variants of: B3
Conditions: with rab2a_human RAB2A

Variant	effect of a mutation on the interaction
S40L	with no effect

Variants of: B4
Conditions: with cep70_human CEP70, Q8NHQ1
Sequence of cep70_human CEP70, Q8NHQ1 (Q8NHQ1 whole entry): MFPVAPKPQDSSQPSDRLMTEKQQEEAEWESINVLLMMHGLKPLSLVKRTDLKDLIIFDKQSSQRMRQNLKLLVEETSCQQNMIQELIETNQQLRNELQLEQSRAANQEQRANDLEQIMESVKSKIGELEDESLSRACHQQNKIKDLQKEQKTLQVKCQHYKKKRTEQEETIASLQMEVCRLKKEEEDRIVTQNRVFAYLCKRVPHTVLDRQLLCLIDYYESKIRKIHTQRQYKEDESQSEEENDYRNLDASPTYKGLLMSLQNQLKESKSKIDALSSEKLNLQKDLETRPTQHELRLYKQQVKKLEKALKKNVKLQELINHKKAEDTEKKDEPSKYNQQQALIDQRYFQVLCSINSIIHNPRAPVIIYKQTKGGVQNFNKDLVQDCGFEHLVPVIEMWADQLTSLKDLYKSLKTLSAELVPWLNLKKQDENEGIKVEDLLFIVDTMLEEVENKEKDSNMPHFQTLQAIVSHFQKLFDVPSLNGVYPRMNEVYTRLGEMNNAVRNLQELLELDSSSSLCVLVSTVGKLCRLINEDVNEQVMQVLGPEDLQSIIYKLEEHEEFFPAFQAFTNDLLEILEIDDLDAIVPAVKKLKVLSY

Variant	effect of a mutation on the interaction
R675C	with no effect
R298K	with no effect

Variants of: B5
Conditions: with klc3_human KLC3, Q6P597
Sequence of klc3_human KLC3, Q6P597 (Q6P597 whole entry): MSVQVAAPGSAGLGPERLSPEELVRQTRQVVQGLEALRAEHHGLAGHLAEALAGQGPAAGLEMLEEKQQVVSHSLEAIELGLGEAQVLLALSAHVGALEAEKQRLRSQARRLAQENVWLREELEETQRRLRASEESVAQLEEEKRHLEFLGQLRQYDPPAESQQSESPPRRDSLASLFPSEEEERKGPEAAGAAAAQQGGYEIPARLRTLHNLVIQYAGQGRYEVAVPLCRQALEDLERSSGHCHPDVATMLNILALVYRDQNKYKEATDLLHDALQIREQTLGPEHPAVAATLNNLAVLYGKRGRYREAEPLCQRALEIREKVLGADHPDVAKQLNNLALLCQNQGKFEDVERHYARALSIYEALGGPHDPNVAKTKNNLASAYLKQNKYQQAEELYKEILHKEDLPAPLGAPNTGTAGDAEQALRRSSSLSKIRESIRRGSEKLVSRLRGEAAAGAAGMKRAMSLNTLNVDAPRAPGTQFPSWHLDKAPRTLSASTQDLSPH

Variant	effect of a mutation on the interaction
MSSPDGPSFPSGPLSGGASPSGDEGFFPFVLERRDSFLGGGPGPEEPEDLALQLQQKKKDLLLAAELGKMLLERNEELRRQLETLSAQHLEREERLQQENHELRRGLAARGAEWEARAVELEGDVEALRAQLGEQRSEQQDSGRERARALSELSEQNLRLSQQLAQASQTEQELQRELDALRGQCQAQALAGAELRTRLESLQGENQMLQSRRQDLEAQIRGLREEVEKGEGRLQTTHEELLLLRRERREHSLELERARSEAGEALSALRRLQRRVSELEEESRLQDADVSAASLQSELAHSLDDGDQGQGADAPGDTPTTRSPKTRKASSPQPSPPEEILEPPKKRTSLSPAEILEEKEVEVAKLQDEISLQQAELQSLREELQRQKELRAQEDPGEALHSALSDRDEAVNKALELSLQLNRVSLERDSLSRELLRAIRQKVALTQELEAWQDDMQVVIGQQLRSQRQKELSASASSSTPRRAAPRFSLRLGPGPAGGFLSNLFRRT [E58K]	with no effect
